“And” between values parts separate entries of the source, which are not always exact repeats. Equal entries are not always repeated.
Legend:
[1] = molecular target: Signal recognition particle 19kDa (human) (UniProt P09132)
[2] = molecular target: Eukaryotic translation initiation factor 1 A, Y-linked (human) (UniProt O14602)
[3] = molecular target: WAS/WASL interacting protein family, member 1 (human) (UniProt O43516)
[4] = molecular target: CDKN2A interacting protein (human) (UniProt Q9NXV6)
[5] = molecular target: Additional sex combs like 1 (Drosophila) (human) (UniProt Q8IXJ9)
Chain of Additional sex combs like 1 (Drosophila) (human) (Q8IXJ9 other isoform, or with tags, fused parts or gaps limits assumed): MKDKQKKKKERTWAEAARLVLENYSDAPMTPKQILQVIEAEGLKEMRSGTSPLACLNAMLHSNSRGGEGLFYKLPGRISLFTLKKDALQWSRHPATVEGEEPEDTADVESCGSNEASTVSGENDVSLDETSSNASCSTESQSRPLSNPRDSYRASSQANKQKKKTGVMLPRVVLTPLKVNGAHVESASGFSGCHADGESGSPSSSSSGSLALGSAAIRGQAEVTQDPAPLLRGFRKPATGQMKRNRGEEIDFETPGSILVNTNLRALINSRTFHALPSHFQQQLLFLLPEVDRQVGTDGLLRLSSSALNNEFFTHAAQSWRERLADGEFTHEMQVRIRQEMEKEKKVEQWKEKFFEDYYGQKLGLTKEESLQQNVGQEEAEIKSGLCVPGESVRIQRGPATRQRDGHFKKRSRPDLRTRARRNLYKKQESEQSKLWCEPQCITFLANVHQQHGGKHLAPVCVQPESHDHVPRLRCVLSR

[6] = molecular target: Calcium channel, voltage-dependent, beta 1 subunit (human) (UniProt Q02641)
[7] = molecular target: Elongation factor 1 homolog (ELF1, S. cerevisiae) (human) (UniProt P60002)
Aurora kinase A (human) = Aurora kinase A (human) (UniProt O14965)
Cyclin B3 (human) = Cyclin B3 (human) (UniProt Q8WWL7)
[8] = molecular target: Choline kinase alpha (human) (UniProt P35790)
Cortactin (human) = Cortactin (human) (UniProt Q14247)
[9] = molecular target: AF4/FMR2 family, member 4 (human) (UniProt Q9UHB7)
Chain of AF4/FMR2 family, member 4 (human) (Q9UHB7 other isoform, or with tags, fused parts or gaps limits assumed): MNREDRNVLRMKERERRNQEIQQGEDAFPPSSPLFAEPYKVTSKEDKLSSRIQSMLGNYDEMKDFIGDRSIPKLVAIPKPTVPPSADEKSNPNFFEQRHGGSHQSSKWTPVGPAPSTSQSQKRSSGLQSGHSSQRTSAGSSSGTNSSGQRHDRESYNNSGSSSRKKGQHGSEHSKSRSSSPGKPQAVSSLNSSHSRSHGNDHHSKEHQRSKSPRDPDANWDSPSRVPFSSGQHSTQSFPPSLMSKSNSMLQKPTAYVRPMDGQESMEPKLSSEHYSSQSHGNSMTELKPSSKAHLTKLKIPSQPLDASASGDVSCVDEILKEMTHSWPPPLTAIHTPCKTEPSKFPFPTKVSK

[10] = molecular target: DIM1 dimethyladenosine transferase 1 homolog (S. cerevisiae) (human) (UniProt Q9UNQ2)
[11] = molecular target: p 53-regulated DDA3 (DDA3)/proline/serine-rich coiled-coil 1 (human) (UniProt Q6PGN9)
[12] = molecular target: Piccolo (presynaptic cytomatrix protein) (human) (UniProt Q9Y6V0)
Chain of Piccolo (presynaptic cytomatrix protein) (human) (Q9Y6V0 other isoform, or with tags, fused parts or gaps limits assumed): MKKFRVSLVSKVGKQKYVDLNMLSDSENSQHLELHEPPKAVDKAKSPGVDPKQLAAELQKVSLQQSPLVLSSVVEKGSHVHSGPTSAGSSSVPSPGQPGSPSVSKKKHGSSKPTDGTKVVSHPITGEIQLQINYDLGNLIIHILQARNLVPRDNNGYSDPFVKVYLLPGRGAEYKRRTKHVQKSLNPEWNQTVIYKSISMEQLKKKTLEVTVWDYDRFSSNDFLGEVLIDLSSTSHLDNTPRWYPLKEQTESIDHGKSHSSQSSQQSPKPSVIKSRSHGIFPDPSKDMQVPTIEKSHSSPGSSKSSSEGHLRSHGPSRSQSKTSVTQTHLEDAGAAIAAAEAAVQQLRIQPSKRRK

[13] = molecular target: RAD51 associated protein 1 (human) (UniProt Q96B01)
Chain of RAD51 associated protein 1 (human) (Q96B01 whole entry): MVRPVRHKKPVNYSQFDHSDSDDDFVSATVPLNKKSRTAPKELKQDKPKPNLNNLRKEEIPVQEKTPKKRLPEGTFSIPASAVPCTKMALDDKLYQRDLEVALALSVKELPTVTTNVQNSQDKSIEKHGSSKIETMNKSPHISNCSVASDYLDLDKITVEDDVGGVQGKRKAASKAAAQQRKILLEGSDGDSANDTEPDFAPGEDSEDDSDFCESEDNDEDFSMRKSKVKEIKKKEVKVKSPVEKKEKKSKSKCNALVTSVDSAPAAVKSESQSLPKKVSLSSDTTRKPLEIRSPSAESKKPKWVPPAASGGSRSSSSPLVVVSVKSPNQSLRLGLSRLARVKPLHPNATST

[14] = molecular target: Immunoglobulin (CD79A) binding protein 1 (human) (UniProt P78318)
Chain of Immunoglobulin (CD79A) binding protein 1 (human) (P78318 whole entry): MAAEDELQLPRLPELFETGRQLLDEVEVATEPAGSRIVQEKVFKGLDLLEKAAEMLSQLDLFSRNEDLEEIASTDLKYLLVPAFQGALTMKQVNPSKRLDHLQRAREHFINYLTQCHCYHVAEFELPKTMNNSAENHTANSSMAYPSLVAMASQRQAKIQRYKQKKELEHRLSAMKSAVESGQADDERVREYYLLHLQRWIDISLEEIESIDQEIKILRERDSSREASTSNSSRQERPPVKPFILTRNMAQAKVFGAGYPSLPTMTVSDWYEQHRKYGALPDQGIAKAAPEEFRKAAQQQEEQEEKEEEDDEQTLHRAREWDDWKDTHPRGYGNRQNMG

[15] = molecular target: Microtubule-associated protein 2 (human) (UniProt P11137)
Chain of Microtubule-associated protein 2 (human) (P11137 other isoform, or with tags, fused parts or gaps limits assumed): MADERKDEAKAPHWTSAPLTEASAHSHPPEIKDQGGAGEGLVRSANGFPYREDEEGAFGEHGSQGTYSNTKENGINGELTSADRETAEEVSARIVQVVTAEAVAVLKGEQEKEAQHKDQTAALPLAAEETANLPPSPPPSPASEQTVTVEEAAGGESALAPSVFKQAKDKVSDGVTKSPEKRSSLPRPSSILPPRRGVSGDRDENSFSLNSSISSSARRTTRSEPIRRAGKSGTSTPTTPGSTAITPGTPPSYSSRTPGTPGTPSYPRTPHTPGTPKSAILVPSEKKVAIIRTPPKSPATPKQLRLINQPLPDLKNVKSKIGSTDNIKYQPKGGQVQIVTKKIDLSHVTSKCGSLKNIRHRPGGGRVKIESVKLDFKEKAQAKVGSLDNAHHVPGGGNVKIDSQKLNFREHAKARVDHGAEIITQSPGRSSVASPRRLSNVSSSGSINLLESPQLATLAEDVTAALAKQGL

[16] = molecular target: WD repeat domain 5 (human) (UniProt P61964)
[17] = molecular target: Calcium/calmodulin-dependent protein kinase II alpha (human) (UniProt Q9UQM7)
[18] = molecular target: NIMA (never in mitosis gene a)-related kinase 7 (human) (UniProt Q8TDX7)
Chain of NIMA (never in mitosis gene a)-related kinase 7 (human) (Q8TDX7 whole entry): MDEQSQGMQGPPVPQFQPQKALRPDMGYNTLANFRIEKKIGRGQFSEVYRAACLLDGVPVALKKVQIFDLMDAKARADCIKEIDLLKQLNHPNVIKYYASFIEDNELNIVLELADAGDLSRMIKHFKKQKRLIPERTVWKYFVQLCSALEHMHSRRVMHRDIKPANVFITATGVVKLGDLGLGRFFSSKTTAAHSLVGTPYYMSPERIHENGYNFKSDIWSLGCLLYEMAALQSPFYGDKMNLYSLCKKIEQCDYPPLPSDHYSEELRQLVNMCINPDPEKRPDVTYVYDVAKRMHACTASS

[19] = molecular target: Rtf1, Paf1/RNA polymerase II complex component, homolog (S. cerevisiae) (human) (UniProt Q92541)
[20] = molecular target: Vaccinia related kinase 1 (human) (UniProt Q99986)
Chain of Vaccinia related kinase 1 (human) (Q99986 whole entry, the tested form may be a part): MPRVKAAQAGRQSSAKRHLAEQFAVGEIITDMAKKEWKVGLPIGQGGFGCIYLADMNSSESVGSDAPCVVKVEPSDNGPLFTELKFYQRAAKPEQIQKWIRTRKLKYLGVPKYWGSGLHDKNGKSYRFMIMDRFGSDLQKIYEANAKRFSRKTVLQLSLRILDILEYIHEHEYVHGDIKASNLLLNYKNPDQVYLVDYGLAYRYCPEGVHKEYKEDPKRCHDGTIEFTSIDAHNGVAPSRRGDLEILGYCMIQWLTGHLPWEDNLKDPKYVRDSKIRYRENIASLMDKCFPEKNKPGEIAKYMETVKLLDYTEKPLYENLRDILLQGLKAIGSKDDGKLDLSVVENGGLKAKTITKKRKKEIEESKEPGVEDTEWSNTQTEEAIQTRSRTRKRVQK

[21] = molecular target: Potassium channel tetramerisation domain containing 18 (human) (UniProt Q6PI47)
Chain of Potassium channel tetramerisation domain containing 18 (human) (Q6PI47 whole entry, the tested form may be a part): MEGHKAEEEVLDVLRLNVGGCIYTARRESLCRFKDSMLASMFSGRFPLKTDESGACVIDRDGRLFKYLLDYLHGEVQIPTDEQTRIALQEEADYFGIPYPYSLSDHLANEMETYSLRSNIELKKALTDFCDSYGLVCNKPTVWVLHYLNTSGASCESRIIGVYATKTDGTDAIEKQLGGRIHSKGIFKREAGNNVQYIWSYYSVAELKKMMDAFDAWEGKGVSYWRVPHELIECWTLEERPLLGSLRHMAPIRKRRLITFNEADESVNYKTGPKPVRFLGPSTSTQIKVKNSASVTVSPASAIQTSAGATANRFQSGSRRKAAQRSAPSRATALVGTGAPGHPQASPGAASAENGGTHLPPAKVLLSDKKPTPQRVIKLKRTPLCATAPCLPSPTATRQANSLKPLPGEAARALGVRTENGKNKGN

[22] = molecular target: SLAIN motif family, member 2 (human) (UniProt Q9P270)
[23] = molecular target: Ubiquitin-conjugating enzyme E2S (human) (UniProt Q16763)
[24] = molecular target: Protein kinase C, iota (human) (UniProt P41743)
[25] = molecular target: Checkpoint suppressor 1/Forkhead box N3 (human) (UniProt O00409)
Chain of Checkpoint suppressor 1/Forkhead box N3 (human) (O00409 other isoform, or with tags, fused parts or gaps limits assumed): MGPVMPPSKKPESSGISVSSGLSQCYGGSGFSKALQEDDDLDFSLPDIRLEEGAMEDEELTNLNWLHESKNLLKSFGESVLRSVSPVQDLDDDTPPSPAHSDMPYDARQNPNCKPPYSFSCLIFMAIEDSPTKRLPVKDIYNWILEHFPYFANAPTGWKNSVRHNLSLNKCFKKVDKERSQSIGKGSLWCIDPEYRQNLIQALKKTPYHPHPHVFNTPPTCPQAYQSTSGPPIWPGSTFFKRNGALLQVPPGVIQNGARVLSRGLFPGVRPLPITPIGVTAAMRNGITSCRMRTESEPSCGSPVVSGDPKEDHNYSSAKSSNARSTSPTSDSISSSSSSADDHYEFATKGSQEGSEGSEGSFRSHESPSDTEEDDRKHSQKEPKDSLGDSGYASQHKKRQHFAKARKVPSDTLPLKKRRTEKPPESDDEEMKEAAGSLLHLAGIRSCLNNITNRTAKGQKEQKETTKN

[26] = molecular target: Nuclear speckle splicing regulatory protein 1 (human) (UniProt Q9H0G5)
[27] = molecular target: Eukaryotic translation initiation factor 1 A, X-linked (human) (UniProt P47813)

Chain of Signal recognition particle 19kDa (human) (P09132 whole entry): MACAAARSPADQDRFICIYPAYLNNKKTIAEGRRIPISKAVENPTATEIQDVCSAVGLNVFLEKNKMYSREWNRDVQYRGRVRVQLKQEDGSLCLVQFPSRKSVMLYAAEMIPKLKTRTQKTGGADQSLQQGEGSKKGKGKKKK
Chain of CDKN2A interacting protein (human) (Q9NXV6 whole entry): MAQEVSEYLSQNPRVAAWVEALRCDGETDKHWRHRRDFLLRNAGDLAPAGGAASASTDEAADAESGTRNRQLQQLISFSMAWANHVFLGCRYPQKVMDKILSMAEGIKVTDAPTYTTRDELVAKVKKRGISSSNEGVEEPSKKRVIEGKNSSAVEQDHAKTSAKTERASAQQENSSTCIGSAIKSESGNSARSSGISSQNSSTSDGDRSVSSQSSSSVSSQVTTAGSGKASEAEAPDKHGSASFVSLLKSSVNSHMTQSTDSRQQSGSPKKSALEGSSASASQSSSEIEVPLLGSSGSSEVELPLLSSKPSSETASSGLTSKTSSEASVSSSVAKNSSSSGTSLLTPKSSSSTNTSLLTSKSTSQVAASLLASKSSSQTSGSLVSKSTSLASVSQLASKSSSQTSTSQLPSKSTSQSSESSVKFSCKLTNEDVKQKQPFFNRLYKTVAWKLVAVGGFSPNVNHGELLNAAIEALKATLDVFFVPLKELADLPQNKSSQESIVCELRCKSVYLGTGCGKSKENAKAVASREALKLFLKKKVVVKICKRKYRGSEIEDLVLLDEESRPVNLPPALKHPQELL
Chain of Eukaryotic translation initiation factor 1 A, Y-linked (human) (O14602 whole entry): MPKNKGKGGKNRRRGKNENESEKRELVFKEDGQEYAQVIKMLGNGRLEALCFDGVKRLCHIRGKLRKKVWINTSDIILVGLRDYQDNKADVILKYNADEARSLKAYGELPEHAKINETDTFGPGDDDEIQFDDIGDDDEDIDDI

**Q.** What does the source list for “biotinylated full-length Dengue virus capsid (DENV C) protein”?
**A.** Signal Intensity [1]: 972 and 818; Z-score [1]: 3.73 and 3.02; Signal Intensity [2]: 852; Z-score [2]: 3.18; Signal Intensity [3]: 1160; Z-score [3]: 4.59; Signal Intensity [4]: 1030; Z-score [4]: 4.01; Signal Intensity [5]: 1070; Z-score [5]: 4.19; Signal Intensity [6]: 1020; Z-score [6]: 3.94; Signal Intensity [7]: 816; Z-score [7]: 3.02; Signal Intensity (Aurora kinase A (human)): 1160; Z-score (Aurora kinase A (human)): 4.59; Signal Intensity (Cyclin B3 (human)): 854; Z-score (Cyclin B3 (human)): 3.19; Signal Intensity [8]: 1740; Z-score [8]: 7.26; Signal Intensity (Cortactin (human)): 3080; Z-score (Cortactin (human)): 13.4; Signal Intensity [9]: 1250; Z-score [9]: 5.02; Signal Intensity [10]: 1670; Z-score [10]: 6.93; Signal Intensity [11]: 822; Z-score [11]: 3.04; Signal Intensity [12]: 929; Z-score [12]: 3.53; Signal Intensity [13]: 1140; Z-score [13]: 4.52; Signal Intensity [14]: 1940; Z-score [14]: 8.18; Signal Intensity [15]: 875; Z-score [15]: 3.29; Signal Intensity [16]: 840; Z-score [16]: 3.13; Signal Intensity [17]: 969; Z-score [17]: 3.72; Signal Intensity [18]: 918; Z-score [18]: 3.49; Signal Intensity [19]: 882; Z-score [19]: 3.32; Signal Intensity [20]: 845; Z-score [20]: 3.15; Signal Intensity [21]: 856; Z-score [21]: 3.2; Signal Intensity [22]: 2570; Z-score [22]: 11.1; Signal Intensity [23]: 1350; Z-score [23]: 5.49; Signal Intensity [24]: 841; Z-score [24]: 3.13; Signal Intensity [25]: 918; Z-score [25]: 3.48; Signal Intensity [26]: 928; Z-score [26]: 3.53

**Q.** For “biotinylated full-length Dengue virus capsid (DENV C) protein (other; other documents disagree on this pair)”, which Signal Intensity [27] is on record?
**A.** The Signal Intensity was 997.

**Q.** What about the Z-score [27] of the same substance?
**A.** The Z-score was 3.85.
